35 sequences from the supplement of paper PMC12764529 can be followed below.

± gives the half width of the 95% confidence interval.

Data set [1] is described as follows: folding stability dG unfold from chymotrypsin proteolysis; higher = more stable. The method, boiled down: (§1)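 Only designs with AlphaFold2 dimer inter-PAE above 15 were retained; each was a mini-protein under 80 residues with no cysteine, in a PA-tagged cDNA display construct. After digestion with trypsin and chymotrypsin and sequencing, K50 was inferred by Bayesian fitting of counts, and unfolding free energy was derived per protease or combined against a sequence-predicted unfolded-state K50 and a shared folded-state K50.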

A short description of data set [2]: folding stability dG unfold from trypsin proteolysis; higher = more stable. The method, boiled down: as §1
A short description of data set [3]: folding stability dG unfold (combined trypsin and chymotrypsin); higher = more stable. The gist of the method:
as §1

Consider “SAGGSAGGSGLEILEEREAVFPLHGLVVKREVVVRSPDGVPLVFVEVEAHPELLPLVERLFERSAGGSAGGS [r12_457_TrMRF]”, for which the “folding stability dG unfold” value in data set [1] is -0.0155 ± 0.13 kcal/mol; in data set [2] it was 0.212 ± 0.054 kcal/mol; in data set [3], 0.138 ± 0.099 kcal/mol.
Turning to “SAGGSAGGSGLPIVVQEDGTLVLRREGDGTAAFDVVPLEEFERLPEEFLESLPASALPDPLPLSAGGSAGGS [r12_793_JUSTAS]”, the “folding stability dG unfold” value was 1.41 ± 0.11 kcal/mol in data set [1], -0.428 ± 0.2 kcal/mol in data set [2] and 0.882 ± 0.1 kcal/mol in data set [3].
Regarding “SAGGSAGGSGMKRTATVVERDPATGRVLLEITDGSKTTTRVLEGPPSGRGAASSPEIDSLSLLSAGGSAGGS [r12_421_JUSTAS]”, the “folding stability dG unfold” value in data set [1] was -0.169 ± 0.12 kcal/mol; in data set [2] it was -1.16 ± 0.29 kcal/mol; in data set [3], -0.423 ± 0.098 kcal/mol.
Regarding “SAGGSAGGSGMTLEEIAERLKEEYNAPEVKVTRDPSKPVYTVTVTLADGSTKTYTIYVPEELGSAGGSAGGS [r12_114_JUSTAS]”, the “folding stability dG unfold” value was found to be 3.73 ± 0.051 kcal/mol in data set [1], 2.63 ± 0.047 kcal/mol in data set [2] and 3.44 ± 0.092 kcal/mol in data set [3].
For the sequence “SAGGSAGGSGNATVMLMFPIEISITVMEWDNGKPKMKTQEIEIWVMIMIPVPPPPDPGDPEWNSAGGSAGGS [r12_713_TrROS]”, the “folding stability dG unfold” value in data set [1] stood at 4.09 ± 0.071 kcal/mol; in data set [2], 2.84 ± 0.076 kcal/mol; in data set [3] it was 3.76 ± 0.11 kcal/mol.
As to “SAGGSAGGSGPMDDPVPPRFSVETSVSPVALPPEFVAYVAAHPEEVDAVYTTTVVVLEEGPAGSAGGSAGGS [r12_196_JUSTAS]”, the “folding stability dG unfold” value was -0.482 ± 0.79 kcal/mol in data set [1], -0.559 ± 0.075 kcal/mol in data set [2] and -0.449 ± 0.22 kcal/mol in data set [3].
With “SAGGSAGGSGPVLLVRVRPDGTREILDVLPPDEPVENLPAGEFREFRLIPTESLEDALRKALASAGGSAGGS [r12_452_TrMRF]”, the “folding stability dG unfold” value is 0.304 ± 0.37 kcal/mol in data set [1], -0.44 ± 0.54 kcal/mol in data set [2] and -0.00342 ± 0.21 kcal/mol in data set [3].
With “SAGGSAGGSGSLEKVFTGENKIITIKYLPDGKVIITLHDPSTPKPIAVIEAKPSEIEEILKKESAGGSAGGS [r20_129_TrMRF]”, the results for the “folding stability dG unfold” value in data set [1], in data set [2] and in data set [3] were 1.86 ± 0.076 kcal/mol, 1.24 ± 0.12 kcal/mol and 1.76 ± 0.13 kcal/mol, respectively.
For “SAGGSAGGSGSMLPITTVTPTPDGVWKITYELPDGSTRTITVPPDDLSLSGPPSSSGSSAALASAGGSAGGS [r20_194_JUSTAS]” the same measures were 0.041 ± 0.31 kcal/mol, 1.28 ± 0.091 kcal/mol and 0.764 ± 0.15 kcal/mol.
On to “SAGGSAGGSGSMSTPVTEEITLTLTRTTEDGTEVVITIKVKVVKDPTSDVVTVTEVLSETVEPSAGGSAGGS [r12_358_JUSTAS]”, for which the figures for the “folding stability dG unfold” value in data set [1], in data set [2] and in data set [3] were 2.54 ± 0.039 kcal/mol, 2.18 ± 0.051 kcal/mol and 2.37 ± 0.099 kcal/mol, respectively.
Consider “SAGGSAGGSGSVEFETDLKDPNIRKAIEEALKEGKKTAVIPFPDGAEGRIVEVEGDKVRVEISSAGGSAGGS [r12_334_TrMRF]”, for which the “folding stability dG unfold” value in data set [1] came out at 1.29 ± 0.099 kcal/mol; in data set [2], 0.0322 ± 0.15 kcal/mol; in data set [3] it was 0.838 ± 0.12 kcal/mol.
Consider “SAGGSAGGSGTSTKINILLPVKPGETVKLKVEVNLNSKKVLFYVDVKKNPVGNYLSATFTVTGSAGGSAGGS [r12_136_TrMRF]”, for which the “folding stability dG unfold” value is 4.42 ± 0.12 kcal/mol in data set [1], 2.75 ± 0.3 kcal/mol in data set [2] and 3.85 ± 0.23 kcal/mol in data set [3].
Turning to “SAGGSAGGSGVLVRITATHPDGSTEEVLEIEVPNDENDPAKLKAIAEELAKKAGMKNIKIELLSAGGSAGGS [r12_569_JUSTAS]”, the “folding stability dG unfold” value in data set [1] worked out at 2.49 ± 0.027 kcal/mol; in data set [2], 1.95 ± 0.047 kcal/mol; in data set [3] it was 2.31 ± 0.07 kcal/mol.
“SAGGSAGGSGVSSVLESLPPSYTVTVEKLPESGKLVVTVTSPSGAAPSLTLDEELADLLKELLSAGGSAGGS [r12_174_JUSTAS]”: the results for the “folding stability dG unfold” value in data set [1], in data set [2] and in data set [3] were 0.626 ± 0.03 kcal/mol, 2.2 ± 0.13 kcal/mol and 1.47 ± 0.093 kcal/mol, respectively.
In the same order, the values of “SAGGSAGGSGVSSVRPVALPGGRVLVLEYFSSTGKVRVTTLTVGDGRPARAESVTPVTPESILSAGGSAGGS [r12_961_JUSTAS]” are 0.275 ± 0.098 kcal/mol, 0.598 ± 0.052 kcal/mol and 0.495 ± 0.09 kcal/mol.
“SAGGSAGGSGVTIPIWYKMDPGQPVPTAEEIQNIINELGFPIKDIKVQYHPDNGYVRAEITVKSAGGSAGGS [r12_1052_TrROS]”: the “folding stability dG unfold” value in data set [1] came out at 0.828 ± 0.088 kcal/mol; in data set [2], 1.25 ± 0.048 kcal/mol; in data set [3] it was 1.11 ± 0.17 kcal/mol.
For “SAGGSAGGSGYLSQERPVTIKLPNGEVVEVDGVVRESPESDVVTVEIPETGQTIEVPKANVVESAGGSAGGS [r12_772_JUSTAS]” the same measures were -0.035 ± 0.16 kcal/mol, 0.909 ± 0.06 kcal/mol and 0.447 ± 0.1 kcal/mol.
On to “SAGGSAGGSHRIIFRINSPGMPPRQAADRIADMLQEEHGLKIKGVDIWTYPNGSYWVTITIEPSAGGSAGGS [r12_781_TrROS]”, for which the figures for the “folding stability dG unfold” value in data set [1], in data set [2] and in data set [3] were 2.98 ± 0.042 kcal/mol, 2.77 ± 0.055 kcal/mol and 2.89 ± 0.073 kcal/mol, respectively.
Consider “SAGGSAGGSIEELAKKTNIIEVKVTEFPNPKFKKAFIVYKNPKENKYKKGIYIFYDKKDGKLESAGGSAGGS [r12_133_TrMRF]”, for which the “folding stability dG unfold” value in data set [1] was 0.544 ± 0.43 kcal/mol; in data set [2] it was -0.185 ± 0.35 kcal/mol; in data set [3] it was 0.313 ± 0.23 kcal/mol.
On to “SAGGSAGGSIEIPGGYTIPSSLSEEEAKEAAKKLFLEKNPELGVKEVEVKVETKNGKKTITVVKSAGGSAGG [r6_558_JUSTAS]”, for which the “folding stability dG unfold” value in data set [1] was 0.857 ± 0.14 kcal/mol; in data set [2], 0.641 ± 0.074 kcal/mol; in data set [3], 0.714 ± 0.28 kcal/mol.
In the case of “SAGGSAGGSIKPGEEVTINFLVPPGNIPEFANELMKQDGIKDIEVKYQPFPNWYMVDITIRVKSAGGSAGGS [r12_993_TrROS]”, the “folding stability dG unfold” value in data set [1] is -0.0266 ± 0.14 kcal/mol; in data set [2], 0.863 ± 0.029 kcal/mol; in data set [3], 0.52 ± 0.096 kcal/mol.
For the sequence “SAGGSAGGSKAEVVEEKEIFTFPNGFVIKLTKVKNENGEEFEFIEIVPLPPELTEEELKKLKESAGGSAGGS [r12_775_TrROS_Hall]”, the results for the “folding stability dG unfold” value in data set [1], in data set [2] and in data set [3] were 2.14 ± 0.023 kcal/mol, 0.711 ± 0.033 kcal/mol and 1.79 ± 0.065 kcal/mol, respectively.
Take “SAGGSAGGSKEFKVEEVGGRLYITFPDGTVVEVRFDKPVTFDLKTGKLYFPEGAEVEKRRLKESAGGSAGGS [r20_158_TrROS_Hall]”: the “folding stability dG unfold” value in data set [1] was 1.19 ± 0.12 kcal/mol; in data set [2], 0.0253 ± 0.24 kcal/mol; in data set [3] it was 0.905 ± 0.26 kcal/mol.
For “SAGGSAGGSKEKKTVILRIKIYVKNENGELIEEIEIPLKDLTLEELKELAKKLNVKVEIELLPSAGGSAGGS [r12_398_TrROS_Hall]”, the “folding stability dG unfold” value was determined as 3.5 ± 0.14 kcal/mol in data set [1], 1.69 ± 0.16 kcal/mol in data set [2] and 3.05 ± 0.2 kcal/mol in data set [3].
Consider “SAGGSAGGSKEKKYLVIELKLKVPPGMSPEELAKLLESLPGLKVVEIVEVDEESGTVKIVVELSAGGSAGGS [r12_712_TrROS_Hall]”, for which the “folding stability dG unfold” value in data set [1] came to 3.54 ± 0.096 kcal/mol; in data set [2], 2.02 ± 0.046 kcal/mol; in data set [3] it was 3.07 ± 0.16 kcal/mol.
Turning to “SAGGSAGGSKEPIRVDEFEWRKNKDGMDMVQVTFPNNGKDIHLPPEHLDNLEPGDEIPLDDLISAGGSAGGS [r20_3_TrROS]”, the “folding stability dG unfold” value in data set [1] is 0.192 ± 0.17 kcal/mol; in data set [2], -0.677 ± 0.12 kcal/mol; in data set [3], -0.138 ± 0.2 kcal/mol.
For “SAGGSAGGSKEVKTIKVEITITDKNGKKITVKAEIVYDKKTKKYYIKIRNKKTNKTYIIELKLSAGGSAGGS [r20_71_TrROS_Hall]”, the “folding stability dG unfold” value in data set [1] was found to be 4.753 ± 0.047 kcal/mol; in data set [2] it was 3.29 ± 0.088 kcal/mol; in data set [3] it was 4.47 ± 0.08 kcal/mol.
Take “SAGGSAGGSKFEITEVSVELVEVDGKLYLKVSMTIKNEDGSTYKISLVYDLENNELYLSIEKVSAGGSAGGS [r12_1035_TrROS_Hall]”: the “folding stability dG unfold” value stood at 5.7 ± 0.16 kcal/mol in data set [1], 4.12 ± 0.43 kcal/mol in data set [2] and 5.87 ± 0.37 kcal/mol in data set [3].
On to “SAGGSAGGSKFKIVSIEVTVETNEDGSKTLTVKIRLEDGSEITITVPENATLEEVLKLLKELASAGGSAGGS [r12_1047_TrROS_Hall]”, for which the “folding stability dG unfold” value in data set [1] came out at 4.42 ± 0.051 kcal/mol; in data set [2], 3.88 ± 0.2 kcal/mol; in data set [3], 4.31 ± 0.11 kcal/mol.
With “SAGGSAGGSKGPMITITLFILVRPDDGKYYATVIEMYIYPNGGIDIEMEMIPADDIPPGDIVISAGGSAGGS [r12_38_TrROS]”, the “folding stability dG unfold” value in data set [1] was 4.74 ± 0.15 kcal/mol; in data set [2] it was 2.94 ± 0.17 kcal/mol; in data set [3] it was 4.55 ± 0.22 kcal/mol.
“SAGGSAGGSKIEFTVPDNDELIEYIRKWFQDNGGQIKNIKIEPTPPNQVKVEIEINPGDPWFQSAGGSAGGS [r12_647_TrROS]”: the “folding stability dG unfold” value in data set [1] was 2.36 ± 0.077 kcal/mol; in data set [2] it was 1.74 ± 0.041 kcal/mol; in data set [3], 2.2 ± 0.14 kcal/mol.
In the case of “SAGGSAGGSKIEITVKTKEELLEAIRKLAEEKGYEIVSIKIEKLPDGTYKVTIEIRKNDPLLKSAGGSAGGS [r12_647_TrROS_Hall]”, the “folding stability dG unfold” value was determined as 2.79 ± 0.076 kcal/mol in data set [1], 1.35 ± 0.083 kcal/mol in data set [2] and 2.38 ± 0.12 kcal/mol in data set [3].
For the sequence “SAGGSAGGSKIKPGEKVEIKLKIKVKDKNGKEKEIELTFSKDMTVEEIKKLLKELEKKGFEIESAGGSAGGS [r20_27_TrROS_Hall]”, the “folding stability dG unfold” value in data set [1] was 3.23 ± 0.24 kcal/mol; in data set [2], 1.56 ± 0.12 kcal/mol; in data set [3], 2.72 ± 0.33 kcal/mol.
Regarding “SAGGSAGGSKIPPGEPVTLPIFFIIWDPENGRPYAMRMEITFDAPDGNITKMNEEVIPPGQPFSAGGSAGGS [r12_868_TrROS]”, the “folding stability dG unfold” value in data set [1] was found to be 1.49 ± 0.17 kcal/mol; in data set [2], 1.5 ± 0.056 kcal/mol; in data set [3], 1.54 ± 0.14 kcal/mol.
For “SAGGSAGGSKITVERNEDGELFVRITFKDGKTITIKAKSVEELKEKLKELGFDVKVEVVERKPSAGGSAGGS [r20_124_TrROS_Hall]” the same measures were 4.58 ± 0.071 kcal/mol, 2.74 ± 0.084 kcal/mol and 4.18 ± 0.087 kcal/mol.
